Data from US20240325555A1 (LANOVA MEDICINES, published 2024).

Tests used:
human LIV-1 [1] = target: T1, human LIV-1 (human, UniProt Q13433 29-755); assay: cell-based or functional assay
T1 sequence (looked up): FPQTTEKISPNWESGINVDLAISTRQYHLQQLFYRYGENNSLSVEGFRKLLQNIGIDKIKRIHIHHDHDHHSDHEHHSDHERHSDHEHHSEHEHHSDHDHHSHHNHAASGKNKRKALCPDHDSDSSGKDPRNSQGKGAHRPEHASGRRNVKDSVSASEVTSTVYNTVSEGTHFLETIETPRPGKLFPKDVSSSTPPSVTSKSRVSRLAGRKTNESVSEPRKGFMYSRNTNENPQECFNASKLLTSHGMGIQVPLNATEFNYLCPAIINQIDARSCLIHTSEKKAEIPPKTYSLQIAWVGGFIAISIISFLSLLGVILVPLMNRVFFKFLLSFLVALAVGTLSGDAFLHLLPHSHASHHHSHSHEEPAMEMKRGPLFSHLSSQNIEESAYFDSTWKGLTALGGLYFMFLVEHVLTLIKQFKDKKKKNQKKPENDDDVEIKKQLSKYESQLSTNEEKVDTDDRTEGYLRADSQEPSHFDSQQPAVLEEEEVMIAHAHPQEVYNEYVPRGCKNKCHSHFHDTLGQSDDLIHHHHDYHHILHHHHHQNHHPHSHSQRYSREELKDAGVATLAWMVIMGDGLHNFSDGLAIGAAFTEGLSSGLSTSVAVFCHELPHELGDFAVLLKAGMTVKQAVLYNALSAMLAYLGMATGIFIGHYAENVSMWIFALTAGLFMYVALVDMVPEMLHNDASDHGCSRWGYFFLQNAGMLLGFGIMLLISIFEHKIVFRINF

human LIV-1 [2] = target: T1, human LIV-1; assay: cell-based or functional assay; remark: listed apart in the source
human LIV-1 [3] = target: T1, human LIV-1; assay: FACS, HEK293/H_LIV-1 cells
Outline: (§1)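 HEK293 cells over-expressing human or cyno LIV-1 incubated with chimeric Abs (from 100 nM, 5-fold dilutions, 8 points) for 60 min at 4 °C, then fluorescent secondary antibody 30 min at 4 °C; washes in 2% FBS/PBS. Binding read by flow cytometry; EC50 from the titration curve.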

human LIV-1 [4] = target: T1, human LIV-1; assay: cell-based or functional assay; remark: listed apart in the source
cynomolgus LIV-1 = cynomolgus LIV-1 (cynomolgus, UniProt A0A2K5WH46 30-741); assay: FACS, HEK293/Cyno_LIV-1 cells
Outline: as §1

Row | Binder | Internalization EC50 (human LIV-1 [1]) [nM] | Internalization Top (RFU) (human LIV-1 [1]) | ADCC reporter EC50 (human LIV-1 [2]) [nM] | ADCC reporter Top (RFU) (human LIV-1 [2]) | EC50 (human LIV-1 [3]) [nM] | Top (MFI) (human LIV-1 [3]) | Cell viability(%) (human LIV-1 [4]) | Cytotoxicity IC50 (human LIV-1 [4]) [nM] | EC50 (cynomolgus LIV-1) [nM] | Top (MFI) (cynomolgus LIV-1)
1 | 135C6E7 (antibody, V domains shown, Tested as chimeric antibody) VH: EVQLVESGGGLVQPKGSLKLSCAASGFTFNTYAMNWVRQAPGKGLEWVARIRSKYNSYATYYADSVKDRFTISRDDSQSILYLQMNNLKTEDTAMYYCVRHEDYDGGFAYWGQGTLVTVSA VL: DIVMSQSPSSLAVSVGEKVTMSCKSSQSLFKSRTRKNYLAWYQQKPGQSPKLLIYWASTRESGVPDRFTGSGSGTDFTLTISSVQAEDLAVYYCKESYNLMYTFGGGTKLEIK | 12.4 | 675000 | 6.4 | 53100 | 3.6 | 16500 | 17.6 | 4.6 | 2.69 | 6290
2 | 59C12C8 (antibody, V domains shown, Tested as chimeric antibody) VH: EVQLQQSGAELVRSGASVKLSCTASDFNIEDYYIHWVKQRPEQGLEWIGWIDPENGDTEYAPKFQGKATMTADTSSNTAYLQLSSLTSEDTAVYYCPHGGGFRVFDYWGQGTTLTVSS VL: DVLMTQTPLSLPVSLGDQASISCRSSQRIVHSNGNTYLEWYLQKPGQSPKLLIYKVSNRFSGVPDRFSGSGSGTDFTLKISRVEAEDLGVYYCFQGSHVPWTFGGGTKLEIK | 3.9 | 408000 | 1.1 | 36300 | 0.1 | 15100 | 20.3 | 0.81 | 0.11 | 8060
3 | 124H4D11 (antibody, V domains shown, Tested as chimeric antibody) VH: EVPLQQSGAELVRSGASVKLSCTASGFNIKDYYMHWVKQRPEQGLEWIGWIDPENGDTEYDPKFQGKATMTADTSSNTADLQLSSLTSEDTAVYYCNARYYAFDYWGQGTTLTVSS VL: DVLMTQTPLSLPVSLGDQASISCRSSQSIVHSNGNTYLEWYLQKPGQSPKLLIYKVSNRFSGVPDRFSGSGSGTEFTLKISRVEAEDLGVYYCFQGSQVPPTFGGGTRLEIK | 4.3 | 474000 | 2.1 | 81900 | 0.23 | 7980 | 15.4 | 0.57 | 0.2 | 3370
4 | 112H11C12 (antibody, V domains shown, Tested as chimeric antibody; also called 112H1C12) VH: QVQLQQPGAELVRPGASVKLSCKASGYTFTSYWMNWVKQRPGQGLKWIGMIDPSNSKTHYNQMFKDKATLTVDKSSNTAYMQLSSLTSEDSAVYYCARTSTTMATFAYWGQGTLVSVSA VL: DVLMTQTPLSLPVSLGDQASISCRSSQSIVHSNGNTYLEWYLQKPGQSPKLLIYKVSNRFSGVPDRFSGSGSGTDFTLKISRVEAEDLGVYYCFQASHFPLTFGAGTELDLN | 13.2 | 643000 | 20.5 | 74700 | 20.7 | 8800 | 18 | 2.08 | 12 | 2930
5 | 136F3D10C10 (antibody, V domains shown, Tested as chimeric antibody) VH: QVQLQQSGPELVKPGASVRIFCKASGYTFTSFHIHWVKQRPGQGLEWIGWIYPGNDNTDHNEKFKGKATLSADKSSSTVYMQLSSLTSEDSAVYFCGRSNYYGPLFAYWGQGTLVTVSA VL: DILMTQTPLSLPVSLGDQASISCRSSQNIVRSNGNTYLEWYLQKPGQSPKVLIYRVSNRFSGVPDRFSGSGSGTDFTLKISRVEAEDLGVYYCFQGSYVPYTFGGGTKLEIK | 32.2 | 835000 | 4.8 | 83900 | 0.85 | 7910 | 16.3 | 1.21 | 0.76 | 3450
6 | 248H1G3 (antibody, V domains shown, Tested as chimeric antibody) VH: EVQLQQSGPELMKRGASVKISCKTSTFTFTEFTIHWVKQSHGKSLEWIGGINPNTGGTSYNQNFTGKATLTVDKSSITAYMELRSLTSEDSAIYYCAPNWDGYWFFDVWGAGTTVTVSS VL: DIQMTQSPASLSASVGETVTITCRASGNIQNYLAWYQQKQGKSPQLLVYGAKTLADGVPSRFSGSGSGTQFSLKINSLQPEDFGSYYCQHFWSPPLTFGAGTKLELK | 4.6 | 357000 | 0.5 | 61600 | 0.89 | 9640 | 3.31 | 2.99 | 2.05 | 2700
7 | 108H1D4 (antibody, V domains shown, Tested as chimeric antibody) VH: EVKLVESGGDLVQPGGSRKLSCAASGFTFSDYGMAWFRQAPGKGPEWVAFISNLAYNIYYADTVTGRFTISRENARNTLYLEMSSLRSEDTAMYYCAREGGITTVPATDYFDYWGQGTTLTVSS VL: DIQMTQTTSSLSASLGDRVTFSCRASQDIRNYLNWYQQKPDGTVKLLIYYTSRLHSGVPSRFSGSGSGTDYSLTINNLEQEDLATYFCQQVNALPLTFGAGTKLELK | 4.8 | 511000 | 8.3 | 139000 | 0.9 | 8800 | 17.3 | 0.7 | 130 | 762
8 | 282G5A2 (antibody, V domains shown, Tested as chimeric antibody) VH: QVQLQQSGAELVRPGTSVKVSCKASGYALTKYLIEWIKQRPGQGLEWIGVINPGNAGNNYNEKFKGKATLTVDQSSSTAYMQLSSLTSEDSAVYFCARRGRDYAMDNWGQGTSVTVSS VL: EIVLTQSPAIMSASLGEKVTMSCRASSSINYIYWYQQKSDASPKLWIYYTSNLAPGVPARFSGSGSGNSYSLTISSMEDEDAATYYCQQFTSSPLTFGAGTKLELK | 41.2 | 227000 | 1.2 | 11300 | 1.12 | 19700 | 8.58 | 12.1 | 0.87 | 13000
9 | 39D10B2 (antibody, V domains shown, Tested as chimeric antibody) VH: QVQLKQSGPGLVQPSQSLSITCTVSGFSLTTYGVHWVRQSPGKGLEWLGVIWTGGTTDYNAAFISRLSISKDNSKSQVFFKMNSLQANDTAMYYCARGPSSYWGQGTLVTVSA VL: DIVMTQSQKFMSTSVGDRVSVTCKASQNVDTNVVWYQQKPGQSPKALIHSASYRYSGVPDRFTGSGSGTDFTLTISNVQSEDLAEYFCQQYNNYPWTFGGGTKLEIK | 16.9 | 171000 | 0.2 | 151000 | 0.24 | 61800 | 16.2 | 1.54 | 0.21 | 37300
10 | 109C9D4 (antibody, V domains shown, Tested as chimeric antibody) VH: EVKLVESGGGLVQPGGSRKLSCAASGFTFSDYGMAWVRQAPGKGPEWVTFISNLAYSIYYADTVTGRFTISRENAKNTLYLEMSSLRSEDTAMYYCARVEENGNYFDYWGQGTTLTVSS VL: DIQMTQTTSSLSASLGDRVTIRCRASQDIGIYLHWYQQKPDGTVKLLIYYTSRLHSGVPSRFSGSRSGTDYSLTIGNLEQEDIATYFCLQGNTIPPTFGGGTKLEIK | 4.2 | 554000 | 4.1 | 101000 | 0.43 | 7340 | 18.5 | 0.69 | 1.33 | 2340
